Target: human folate receptor alpha (hFolRα) on cells (human) (UniProt P15328)
Experiment: cell-based or functional assay

human folate receptor alpha (hFolRα) on cells (human), sequence (P15328 25-234 limits assumed): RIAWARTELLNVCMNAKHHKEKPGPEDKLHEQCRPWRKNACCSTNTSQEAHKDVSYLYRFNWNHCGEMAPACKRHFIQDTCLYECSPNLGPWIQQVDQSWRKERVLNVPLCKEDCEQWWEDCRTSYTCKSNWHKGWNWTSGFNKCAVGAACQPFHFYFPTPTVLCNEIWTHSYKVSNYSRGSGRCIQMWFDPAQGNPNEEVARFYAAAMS

ADC Molecule 21 (IMGN853 surrogate, Mov19-sulfo-SPDB-DM4) (antibody)
fold shift of cell killing EC50 on Igrov1 cells on addition of naked antibody: 3 fold
